Source: patent US20040259198

System: recombinant human MAT II β subunit protein with N-terminal poly-His tag, expressed in E. coli from pQE-30 (Clone 5)

## recombinant human MAT II α2 subunit expressed in E. coli from the pQE-30 vector
  Km (L-Met): the cloned protein lowered the Km (L-Met) of the recombinant human MAT II α2 subunit from 80 µM to 34 µM
  Km for L-Met in the presence of the MAT II β subunit: another kinetic form with a Km for L-Met of 32-34 µM was also apparent, in each case
  Km of MAT for L-methionine: This association changed the kinetic properties of the enzyme and lowered the Km of MAT for L-methionine
